The test system of one assay is EOL-1. Description: Flow cytometry binding to endogenous cell line EOL-1. Format: cell-based, human. The arrangement: key to binding to EOL-1 by flow cytometry: (−): No binding; (+): Weak binding; (++): Moderate binding; (+++): Strong binding. As to conditions: primary antibody 1 ug/ml. In short, it runs like this: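 Live cells stained on ice for 30 minutes with primary antibody at 1 ug/ml in cold PBS/0.5% BSA, then washed and detected with Alexa Fluor 488 anti-human IgG (1:1000). Binding read by flow cytometry on endogenous IL1RAP-positive lines.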

The subject of another assay is H69. Description: Flow cytometry binding to endogenous cell line H69. Format: cell-based. The arrangement: key: (−): No binding; (+): Weak binding; (++): Moderate binding; (+++): Strong binding. As to conditions: primary antibody 1 ug/ml. The protocol: Staining for flow cytometry was performed in 1× cold PBS with 0.5% BSA. Primary antibodies (1 ug/ml) were incubated with live cells on ice for 30 minutes, after a brief wash, cells were incubated with Alexa Fluro® 488-conjugated anti-human IgG secondary antibody @1:1000 (709-546-149, Jackson ImmunoResearch). Acquisition of the data was performed on a MACSQuant® Flow Cytometers (Miltenyi Biotec) and analyzed with FlowJo software.

The subject of assay [1] is TARC production in HDM stimulated human PBMCs. Description: TARC production in HDM stimulated human PBMCs. Format: cell-based. To be noted: antibodies 30 ug/ml, HDM 10 ug/ml. An excerpt:
Materials included Human peripheral blood mononuclear cells (PBMCs) that were isolated from healthy donor blood and either frozen in liquid nitrogen and thawed prior to analysis or used fresh. Materials also included HDM (house dust mite extract) that was from Greer lab and purchased through Fisher Scientific (NC9756554, Lot #390844). Additionally, Human IL-4 (204-IL-010) was purchased from R&D Systems; Human IL-13 (200-13) was purchased from Peprotech; JAK inhibitors (JAKi) Abrocitinib (HY-107429) and Upadacitinib (HY-19569) were purchased from MedChemExpress; Dexamethasone (D4902) was purchased from Sigma-Aldrich; Dupilumab (HY-P9926) was purchased from MedChemExpress; Tralokinumab was produced by Bluefin Biomedicine according to the published protein sequence; and TARC ELISA kits (DuoSet Cat #DY364, Quantikine Cat #SDN00) were purchased from R&D Systems.
Blood was drawn in heparin tubes from healthy volunteers. PBMCs were isolated by centrifugation of the blood over Ficoll-Paque Plus density gradients using LeucoSep tubes.
0.2 million PBMCs in 100 ul medium (RPMI1640, 10% heat-inactivated FBS) were added to each well of 96 well cell culture plate. BFB759 at multiple concentrations in 50 ul medium was added to the wells. The cells were incubated in the incubator for 45 min. Then, 50 ul HDM solution (final concentration 10 ug/ml) was added to the wells. […]

In assay [2] the test system is TARC expression in PBMCs stimulated with HDM and IL-4. As to the kind of experiment: TARC in PBMCs treated by HDM and hIL-4. Format: cell-based, human. The procedure:
0.2 million PBMCs in 100 ul medium (RPMI1640, 10% heat-inactivated FBS) were added to each well of 96 well cell culture plate. BFB759 at multiple concentrations in 50 ul medium was added to the wells. The cells were incubated in the incubator for 45 min. Then, 50 ul HDM solution (final concentration 10 ug/ml) was added to the wells. After 7 days incubation, the supernatant was transferred to a new 96 well plate, and used in TARC ELISA right away, or frozen in −80 C freezer for ELISA later. For the combination studies of BFB759 with other drugs, the single agent or combination of drugs were added to the PBMCs, incubated for 45 min, then HDM solution, or HDM and IL-4 or IL-13 solution were added to the wells. The assay was incubated for 7 days, and the supernatant was harvested for TARC ELISA.
Dupilumab is approved for treatment of AD (Atopic Dermatitis). It inhibits IL-4/13 signaling by blocking their binding to IL-4Ra. […] (FIG. 15)
In the data shown in FIG. 15, HDM was used at 10 ug/ml, IL-4 was used at […], antibodies were at three different concentrations as shown in the graph. Data shown are mean±s.d.

Assay [3] has as its system normal human dermal fibroblasts (NHDF). As to the kind of experiment: IL-6 and IL-8 production in NHDF stimulated with cytokine combo incl. IL-17A. As to conditions: cytokine combo IL-1α/β, IL-36α/β/γ, antibodies 0-20 ug/ml, BFB759 0.5 ug/ml in combination. In kind it is cell-based. The protocol: (§1) Human NHDF cells were plated on 96-well, flat-bottom plates at 4,000 cells/well. […] For combination therapy, 0.5 ug/ml BFB759 was mixed with Secukinumab or Isotype control antibody at increasing concentrations (0-20 ug/ml, 5-fold dilution) and incubated with cells in duplicate for 45 minutes, prior to the addition of cytokine combo. The plates were then incubated overnight at 37° C., 5% CO2. 24 hours after treatment, supernatants were transferred and assayed for IL-6 and IL-8, as per manufacture's protocol (R&D Systems; Human IL-6 DuoSet ELISA, Human IL-8/CXCL8 DuoSet ELISA). The raw assay data were analyzed using GraphPad Prism 9 software to perform a non-linear regression.

The test system is the same in assay [4]. Description: IL-6 and IL-8 production in NHDF stimulated with cytokine combo incl. TNF-α. Format: cell-based. To be noted: cytokine combo IL-1α/β, IL-36α/β/γ, antibodies 0-20 ug/ml, BFB759 0.5 ug/ml in combination. The procedure:
as §1, with “adalimumab” for “Secukinumab”, “isotype” for “Isotype”

B1: 37E10_15B5: human anti-IL1RAP antibody BFB759 (i.e., 37E10_15B5), VH SEQ ID NO: 64, VL SEQ ID NO: 68 (antibody, V domains shown)
VH: QVQLVESGGGVVQPGRSLRLSCAASGFTFRSHGMHWVRQAPGKGLEWVAVIWYDGSSEYYADSVKGRFTISRDNSKNTLYLQMNSLRAEDTAVYYCARENVYGSGWFFDYWGQGTLVTVSS
VL: EIVMTQSPATLSVSPGERASLSCRASQSVGSNLAWYQQRPGQAPRLLIFGASTRATGIPARFSGSRSGTEFTLTISSLQSEDFALYYCQQYNNWPPWTFGQGTKLEIK
B1: the “binding to EOL-1 by flow cytometry” value in the assay with EOL-1 is “(+++)”. Also, the “binding to H69 by flow cytometry” value with H69 is listed as “(−)”. Moreover, the “inhibition of HDM induced TARC level, FIG. 13” value in assay [1] is “inhibits”. The “inhibition of TARC expression in the HDM and IL-4 model” value in assay [2] (1 or 0.1 ug/ml of BFB759, alone or combined with dupilumab) is recorded as “minimal inhibition”; in assay [2] (HDM 10 ug/ml, IL-4 750 ug/ml, three antibody concentrations), “partially inhibits”. The IL-6 production result in assay [3] and in assay [4] was “dose-dependent decrease” in each case. Also, the IL-8 production entry in assay [3] and in assay [4] was “dose-dependent decrease” each time.
